# Measured values published in patent US10781452B2, “FLT3 receptor antagonists for the treatment or the prevention of pain disorders” (INSTITUT NATIONAL DE LA SANTE ET DE LA RECHERCHE MEDICALE …, priority 2010, dated 2020).
# T1: FLT3 (Mus musculus, UniProt Q00342)
# T1 construct: from tissue; host or cells: living mice (sensory neurons / DRG)
# T1 sequence (Q00342 28-1000): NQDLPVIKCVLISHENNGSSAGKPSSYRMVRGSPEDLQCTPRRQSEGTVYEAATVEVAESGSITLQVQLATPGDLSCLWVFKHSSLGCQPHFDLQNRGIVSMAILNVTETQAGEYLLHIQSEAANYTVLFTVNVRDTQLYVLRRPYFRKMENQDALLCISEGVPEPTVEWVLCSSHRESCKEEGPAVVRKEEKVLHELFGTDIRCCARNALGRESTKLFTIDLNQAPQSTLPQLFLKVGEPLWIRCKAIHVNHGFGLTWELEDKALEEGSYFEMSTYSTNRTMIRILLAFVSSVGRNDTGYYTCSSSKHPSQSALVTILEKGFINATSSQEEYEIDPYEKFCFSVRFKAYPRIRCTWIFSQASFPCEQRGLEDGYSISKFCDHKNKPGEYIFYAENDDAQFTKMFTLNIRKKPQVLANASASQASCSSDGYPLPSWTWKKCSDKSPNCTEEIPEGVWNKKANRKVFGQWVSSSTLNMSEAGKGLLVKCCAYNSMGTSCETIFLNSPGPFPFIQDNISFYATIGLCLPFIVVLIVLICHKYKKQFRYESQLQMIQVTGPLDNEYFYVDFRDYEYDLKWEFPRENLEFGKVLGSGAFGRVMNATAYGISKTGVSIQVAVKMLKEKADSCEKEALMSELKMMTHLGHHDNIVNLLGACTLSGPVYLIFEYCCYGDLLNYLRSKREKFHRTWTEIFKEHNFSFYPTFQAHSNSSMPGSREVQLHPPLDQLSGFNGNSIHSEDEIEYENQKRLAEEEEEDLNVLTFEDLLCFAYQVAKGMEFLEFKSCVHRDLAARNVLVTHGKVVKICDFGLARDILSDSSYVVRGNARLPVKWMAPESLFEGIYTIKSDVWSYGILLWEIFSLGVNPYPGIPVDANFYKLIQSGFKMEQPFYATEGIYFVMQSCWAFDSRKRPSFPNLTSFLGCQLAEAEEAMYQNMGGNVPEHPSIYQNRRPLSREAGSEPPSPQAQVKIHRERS
# T2: ECD of mouse recombinant FLT3 (Fc-ECDmFLT3) (Mus musculus, UniProt Q00342)
# T2 construct: ECD of human or mouse recombinant FLT3 produced in NSO cell line; host or cells: NSO cell line
# T2 sequence (Q00342 28-544 limits assumed): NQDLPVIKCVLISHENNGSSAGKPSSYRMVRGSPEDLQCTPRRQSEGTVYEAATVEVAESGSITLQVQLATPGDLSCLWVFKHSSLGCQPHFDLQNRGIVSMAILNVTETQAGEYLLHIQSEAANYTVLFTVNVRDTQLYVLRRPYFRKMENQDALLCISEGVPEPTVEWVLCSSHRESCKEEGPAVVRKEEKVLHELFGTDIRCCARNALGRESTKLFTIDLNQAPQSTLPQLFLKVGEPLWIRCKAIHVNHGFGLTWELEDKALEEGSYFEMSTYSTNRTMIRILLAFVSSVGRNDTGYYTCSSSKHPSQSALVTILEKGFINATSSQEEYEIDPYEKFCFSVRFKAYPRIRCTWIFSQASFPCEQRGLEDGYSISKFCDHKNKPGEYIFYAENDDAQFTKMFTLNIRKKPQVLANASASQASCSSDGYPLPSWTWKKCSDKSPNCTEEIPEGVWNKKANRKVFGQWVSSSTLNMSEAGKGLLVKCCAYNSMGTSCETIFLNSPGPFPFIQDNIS
# B1: A3 antibody: human monoclonal antibody against FLT3; VH SEQ ID NO:1, VL SEQ ID NO:2 (antibody, V domains shown)
# VH: EVQLVESGGSLVKPGGSLRLSCAASGFTFSNSYMNWVRQAPGKGLEWISDISGSSRDIDYADFVKGRFTISRDNATNSLYLQMNSLRAEDTAVYYCVRSGNSGMDVWGRGTLVTVSS
# VL: QSVLTQPASVSGSPGQSITISCAGTSSDVGGGYYVSWYQQHPGKAPKLMIYYDSYRPSGVSNRFSGSKSGNTASLTISGLQAEDEADYYCSSYTNNSTRVFGGGTKLEIK
# modifications: Synthetic VH domain of A3; Synthetic VL region of A3
# How the values were obtained:
# FLT3 = target: T1, FLT3; assay: Chronic Constriction Injury (CCI) mouse model, mechanical hypersensitivity (0.6 g von Frey filament); assay type: in vivo
# Method: The efficacy of the antibody A3 to reverse neuropathic pain was assessed in the Chronic Constriction Injury (CCI) mouse model of persistent peripheral neuropathic pain, consisting in three chronic ligatures tied loosely around the sciatic nerve (Bennett, G. J. & Xie, Y. K. A peripheral mononeuropathy in rat that produces disorders of pain sensation like those seen in man. Pain, 1988, 33:87-107). Neuropathic pain symptoms, such as mechanical hypersensitivity, develop within 10 days post-injury.
# CCI model. The Chronic Constriction Injury (CCI) model was adapted for mice (Costa, B., Comelli, F., Bettoni, I., Colleoni, M. & Giagnoni, G. The endogenous fatty acid amide, palmitoylethanolamide, has anti-allodynic and anti-hyperalgesic effects in a murine model of neuropathic pain: involvement of CB(1), TRPV1 and PPARgamma receptors and neurotrophic factors. Pain, 2008, 139:541-550). Briefly, skin was incised and the sciatic nerve was exposed unilaterally at the […] by dissecting through the biceps femoris. […]
# Mechanical nociception assay. […] The procedure was applied 10 times and the percentage of positive responses was calculated.
# Data and statistical analyses. Data are expressed as the mean ±S.E.M. Statistical significance was determined by two-way analysis of variance (ANOVA) for repeated measures, over time. […]
# [1] = target: T2, ECD of mouse recombinant FLT3 (Fc-ECDmFLT3); assay: ELISA binding to ECD of mouse recombinant FLT3; conditions: antibody at 10 μg/mL
# Method: The A3 antibody directed against FLT3 was produced by a phage display strategy and the antibody selection was performed by using ECD of human or mouse recombinant FLT3 produced in NSO cell line. To identify antibodies cross-reacting with both human and mouse FLT3, phages were selected by three rounds of panning, according to methods well known in the art (Philibert, P. et al. A focused antibody library for selecting scFvs expressed at high levels in the cytoplasm. BMC Biotechnol. 7, 81; 2007), first against the ECD of human FLT3, then against the ECD of mouse FLT3 and then against the ECD of human FLT3. A batch of one selected antibody named A3 was tested for its ability to bind to the ECD of human or mouse recombinant FLT3 using an ELISA technique.
molecule,measurement,setting,value
B1,mechanical sensitivity (percentage of withdrawal) after CCI injury,"FLT3; 100 μg/animal intraperitoneal, 9 days after CCI, vs control irrelevant antibody",completely reduce mechanical sensitivity to the scores obtained before CCI injury
same,duration of inhibition of CCI-induced pain hypersensitivity,"FLT3; single injection, 100 μg/animal",48 h
same,ELISA immunoreactivity against Fc-ECDmFLT3,[1],generates immunoreactivity
